From article PMC2942778 (Biochemistry, 2010) come the findings set out here.

For orientation: Kd means the free concentration of one partner at which half of the binding sites on the other are occupied at equilibrium, for simple one-to-one binding. As usually defined, the stoichiometry N is the number of molecules, sites or subunits per partner or assembly.

This data set concerns the molecule itself. Briefly: AUC.

B1: BlaI gene repressor (blaI gene product) of plasmid pI258 from S. aureus NRS128 (natural protein)
chain: MANKQVEISMAEWDVMNIIWGKKSVSANEIVVEIQKYKEVSDKTIRTLITRLYKKEIIKRYKSENIYFYSSNIKEDDIKMKTAKTFLNKLYGGDMKSLVLNFAKNEELNNKEIEELRDILNDISKK
With B1, binding was put at a Kd of 1610 ± 20 nM and the “stoichiometry N” value worked out at 2.
